Source: patent US20240109974A1 (SHANDONG SIMCERE BIOPHARMACEUTICAL, published 2024)
Positions count from the first letter of the chain named.

T1: Human TNFR2-His (Sino 10417-H08H) (human, UniProt P20333 23-257)
T1 construct: Bought protein; also called recombinant human TNFR2 protein; not shown: His tag
T1 sequence (looked up): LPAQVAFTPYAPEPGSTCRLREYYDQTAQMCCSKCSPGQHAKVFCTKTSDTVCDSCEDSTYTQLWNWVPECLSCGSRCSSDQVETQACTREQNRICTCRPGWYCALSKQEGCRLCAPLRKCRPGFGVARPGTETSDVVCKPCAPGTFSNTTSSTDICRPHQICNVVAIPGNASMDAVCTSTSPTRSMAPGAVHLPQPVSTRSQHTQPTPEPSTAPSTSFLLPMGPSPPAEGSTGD

T2: human TNFR2 on the surface of CHO-TNFR2 cells (human, UniProt P20333 23-461)
T2 construct: whole, on cells
T2 sequence (looked up): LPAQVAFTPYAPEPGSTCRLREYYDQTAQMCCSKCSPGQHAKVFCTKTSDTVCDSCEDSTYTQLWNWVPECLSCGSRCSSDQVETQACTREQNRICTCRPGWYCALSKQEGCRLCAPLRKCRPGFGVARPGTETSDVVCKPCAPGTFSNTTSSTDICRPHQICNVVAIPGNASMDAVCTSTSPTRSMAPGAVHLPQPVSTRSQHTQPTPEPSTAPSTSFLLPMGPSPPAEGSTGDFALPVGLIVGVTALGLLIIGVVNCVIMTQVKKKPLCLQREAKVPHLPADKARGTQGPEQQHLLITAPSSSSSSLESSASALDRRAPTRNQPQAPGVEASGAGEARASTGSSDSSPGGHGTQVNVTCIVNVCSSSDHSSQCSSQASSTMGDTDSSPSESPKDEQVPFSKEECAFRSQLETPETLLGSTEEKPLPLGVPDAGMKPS

B1: 219-Hu3 (antibody, V domains shown)
VH: QVQLVQSGAEVKKPGSSVKVSCKASGYSFTNYWMNWVRQAPGQGLEWMGMIHPSDTETRLNQNFKDRVTITADKSTSTAYMELSSLRSEDTAVYYCARGEGLGAARSVSMDYWGQGTLVTVSS
VL: DIQMTQSPSSLSASVGDRVTITCRASQDISNYLNWYQQKPDGTVKLLIYYTAILHSGVPSRFSGSGSGTDYSLTISSLQPEDFATYFCQQGNTLPWTFGQGTKVEIK
notes: also called VH5 + VL5
B2: 219-Hu1 (antibody, V domains shown)
VH: B1 VH with S16A, G44R, A72R, K74T, T76A
VL: B1 VL
notes: also called VH3 + VL5
B3: 219-Hu2 (antibody, V domains shown)
VH: B1 VH with R67K, V68A
VL: B1 VL
notes: also called VH4 + VL5
B4: 219-Hu4 (antibody, V domains shown)
VH: B1 VH with R38K, M48I, R67K, V68A, I70L, A72V
VL: B1 VL
notes: also called VH6 + VL5
B5: 219-Hu5 (antibody, V domains shown)
VH: B1 VH with A72V
VL: B1 VL
notes: also called VH7 + VL5
B6: 001-Hu5 (antibody, V domains shown)
VH: EVQLVESGGGLVQPGGSLRLSCAASGFAFSTYDLSWVRQAPGKGLEWVAYINNGGISTYYSDTVKGRFTISRDNAKNTLYLQMNSLRAEDTAVYYCVRGPFYGSANYFDYWGQGTLVTVSS
VL: DIQMTQSPSSLSASVGDRVTITCRTSESIYSNLPWYQQKPGKSPKLLVYDATKLAEGVPSRFSGSGSGTDYTLTISSLQPEDFATYYCQHFWVTPWTFGQGTKVEIK
notes: Humanized form of #001; also called VH1 + VL4
B7: 001-Hu1 (antibody, V domains shown)
VH: B6 VH
VL: B6 VL with S43A, V48L
notes: Humanized form of #001; also called VH1 + VL1
B8: 001-Hu2 (antibody, V domains shown)
VH: B6 VH with T78S
VL: B6 VL with V48I, Y71F
notes: Humanized form of #001; also called VH2 + VL2
B9: 001-Hu3 (antibody, V domains shown)
VH: B6 VH
VL: B6 VL with S43A, V48I
notes: Humanized form of #001; also called VH1 + VL3
B10: 001-Hu4 (antibody, V domains shown)
VH: B6 VH with T78S
VL: B6 VL
notes: Humanized form of #001; also called VH2 + VL4

What follows are binders tested against T1, Human TNFR2-His (Sino 10417-H08H) (assay: ELISA, human TNFR2-His coated; EC50 against 219-WT).
Experimental: (§1) The test humanized antibody against TNFR2 (as described in Example 1, the antibody was comprised of variable regions linked to IgG-Fc; the WT chimeric antibody also adopted the IgG-Fc structure) was subjected to 3.33-fold gradient dilution, loaded with 100 μl/well, and incubated with shaking at room temperature for 1.5 hours. The plate was washed, and then a working solution of murine anti-human IgG Fc-HRP (diluted at 1:10000) was added, loaded with 100 μl/well, and incubated with shaking at room temperature for 1.0 hour. The plate was washed again, and then the substrate TMB of HRP was added to develop colour. A stop solution was added to stop the reaction, and then a microplate reader (MD 13) was used to read the absorbance value. The binding curve of an antibody was drawn with antibody concentration as the abscissa and corresponding OD value as the ordinate, and fitted with four parameters (GraphPad Prism9) to calculate the EC50 value. The smaller the EC50 value, the stronger the binding ability of an antibody to human/cynomolgus monkey TNFR2. The binding effect of a humanized antibody was normalized to its corresponding human-murine chimeric antibody WT (see SEQ ID NOs: 38-43 for the sequence). The higher the percentage value, the better the binding effect of the humanized antibody. The results of binding of an anti-TNFR2 antibody to a human TNFR2 protein are shown in FIG. 1 and Table 4, and the results of binding of an anti-TNFR2 antibody to cynomolgus monkey TNFR2 are shown in FIG. 2 and Table 4.

Going from B1 to B2, the “% Relative activity (WT antibody/test antibody)” value falls from 84.4% to 83.1%.

Compared with B3, B4 is higher in “% Relative activity (WT antibody/test antibody)” value: 95.9% for the first, 99.7% for the second.

For B5, the “% Relative activity (WT antibody/test antibody)” value was 96.5%.

Each binder was assayed against T2, human TNFR2 on the surface of CHO-TNFR2 … (assay: competition flow cytometry on CHO-TNFR2 cells, competitor TNFα-biotin; AUC against 001-WT).
Experimental: CHO stable cells highly expressing human TNFR2 were used for the experiment (the same as CHO-TNFR2 in Example 4). The CHO-TNFR2 cells were digested, washed twice with DPBS, then stained with Live/Dead (L/D) (20 minutes at room temperature), and plated at a density of 1×10⁵ cells/50 μl/well. A test anti-TNFR2 antibody was diluted to 6 μg/ml with a staining buffer as the starting concentration: the antibody was subjected to 3.33-fold gradient dilution, with a total of 7 concentration points. The diluted antibody was added to the plated cells at 50 μl/well, and the mixture was mixed well by gentle pipetting, and incubated at 4° C. for 30 minutes. Then the diluted 100 ng/ml of human TNFα-biotin was added at 100 μl/well, and the mixture was mixed well by gentle pipetting, and then incubated at 4° C. for 30 minutes. The mixture was washed twice with a staining buffer, and then 0.12 μg/ml PE-streptavidin (BioLegend, Cat #405204) was added at 100 μl/well; the resulting mixture was incubated at 4° C. for 30 minutes. The mixture was washed twice with a staining buffer, and then 150 μl of staining buffer was added to resuspend the cells; signals were detected by a flow cytometer (Thermo Attune NxT). The inhibitory curve of an antibody was drawn with antibody concentration as the abscissa and corresponding MFI value as the ordinate, and fitted with four parameters (GraphPad Prism9) to calculate the IC50 value. The smaller the IC50 value, the stronger the ability of an antibody to inhibit the binding of human TNFα to human TNFR2. The blocking effect of a humanized antibody was normalized to its corresponding human-murine chimeric WT antibody. The higher the percentage value, the better the inhibitory effect of the humanized antibody.

Going from B6 to B7, the “% Relative activity (WT antibody/test antibody)” value rises from 93.1% to 97.4%.

First: B8
Second: B9
The “% Relative activity (WT antibody/test antibody)” value of the first is lower: 95.8% for the first, 97.8% for the second.

In the case of B10, the “% Relative activity (WT antibody/test antibody)” value is reported as 93.7%.

Each binder was assayed against T1, Human TNFR2-His (Sino 10417-H08H) (assay: ELISA, human TNFR2-His coated; EC50 against 001-WT).
Experimental: as §1

Compared with B6, B7 is higher in “% Relative activity (WT antibody/test antibody)” value: 100% for the first, 104% for the second.

Going from B8 to B9, the “% Relative activity (WT antibody/test antibody)” value falls from 102% to 101%.

In the case of B10, the “% Relative activity (WT antibody/test antibody)” value is reported as 109%.
